Assay results from article PMC3326527 (Journal of molecular biology, 2005).

Target: the molecule itself
Assay: crystal structure

B1: UDP-galactopyranose mutase from Mycobacterium tuberculosis (enzyme)
chain: MQPMTARFDLFVVGSGFFGLTIAERVATQLDKRVLVLERRPHIGGNAYSEAEPQTGIEVHKYGAHLFHTSNKRVWDYVRQFTDFTDYRHRVFAMHNGQAYQFPMGLGLVSQFFGKYFTPEQARQLIAEQAAEIDTADAQNLEEKAISLIGRPLYEAFVKGYTAKQWQTDPKELPAANITRLPVRYTFDNRYFSDTYEGLPTDGYTAWLQNMAADHRIEVRLNTDWFDVRGQLRPGSPAAPVVYTGPLDRYFDYAEGRLGWRTLDFEVEVLPIGDFQGTAVMNYNDLDVPYTRIHEFRHFHPERDYPTDKTVIMREYSRFAEDDDEPYYPINTEADRALLATYRARAKSETASSKVLFGGRLGTYQYLDMHMAIASALNMYDNVLAPHLRDGVPLLQDGA
binding result: binds
